Data taken from a protein production outcome set (Wang et al. 2014).

Assay: label from the status in PepcDB records
For “MAPNASCLCVHVRSEEWDLMTFDANPYDSVKKIKEHVRSKTKVPVQDQVLLLGSKILKPRRSLSSYGTDKEKTIHLTLKVVKPSDEELPLFLVESGDEAKRHLLQVRRSSSVAQVKAMIETKTGIIPETQIVTCNGKRLEDGKMMADYGIRKGNLLFLASYCIGG”, the protein production was “failed”. With “MAPQASTRENACRSEMLSASSRGSGWPCQENPDLSIPPLRPIALSRRNGWWSGAAAVKLASGHCTGRWKMSFWYVVDAVAVGIILPWIIATYRLLEAFKRGTGAGLTKWAIYAAVCVPAMLLVMWGIQNLR” the protein production was “failed”. For “MAPRTNRPRTNRPRTGRPPAPDAPAAPDAPTAPDARRRRLPMRFLLPSLLLLAVMAMLMLRGFVHSEILADHRIRPPAATDQVPEKILDGGPVIDTRGGRTTSLSLPDHRLVLTFDDGPDPQWTPKVLDVLKKHHAHAVFFVTGTMTSRHPDLVRRLVAEGHEVGVHTFNHPDLAYQSKKRIDWELSQNQLALAGAAGIRTSLFRPPYSSFADAMDNESWPVTEYIGTRGYITVVNNTDSEDWQKPGVDEIIRRATPRGGKGAVVLMHDSGGDRHQTVQALDRFLPELQRRGYEFENLSEALGAPSAHTPVTGVDRWKGNAWIFLVQAADRITGMLVVGLAVIGGLVLTRFGLMLLLSGTHARRVRRPDFRWGPAPVTEPVSVLVPAYNEAKCIENTVRSLTASEHPVEVIVVDDGSSDGTARLVESLRLPDVRVVRQHNAGKPAALNRGLANARHDLIVMMDGDTVFEPATVRELVQPFADPRVGAVAGNAKVGNRDSLIGAWQHIEYVMGFNLDRRMYDLLRCMPTIPGAVGAFRRSALERVGGMSDDTLAEDTDITMALHRDGWRVVYAEKARAWTEAPESVQQLWSQRYRWSYGTMQAIWKHRRALVERGPSGRFGRVGLPLVALFMVVAPLLAPLIDVFLLYGVIFGPTQKTVLAWLGVLAVQAVCAAYAFRLDRERMTHLVSLPLQQILYRQLMYVVLLQSWITALVGGRLRWQKLRRTGVVEAPGSIPQQRTAGSESERRPVG”, the protein production was “failed”. In the case of “MAPVIRRAKEIDLYCLNSLMYKLHDEHHQQCPDLFKTASEIEEEKSIARYLDDPECMVYVAEMDDVIIGFITGHFCELISTVSKLVMMATIDELYIEKEYRREGVAEQLMMRIEQELKDYGVKEIFVEVWDFNKGALEFYNKQGLNEHIHYLRKPLNRLEHHHHHH”, the protein production is reported as “not failed”. With “MAQAQTQGQEEEQKKKILIVVTHGPEDLDRTYAPLFMASISASMEYETSVFFMIKGPKLLDKKWQEEERKKGGNPFIHFFDMAKENGVKMYVCVQSLKDMCHMKEDDVVEGIELVGGSTLIDLTLEADRTLFF” the protein production was “not failed”. For “MAQEDVTAVATNGAGPVETHLVFTEFKQMLLVEAQKVGDAVTFYKSAFGAIESGHSLYPKRKLDQELPHVLSSELNLAGSSFVVCDVSSLPGFSTAKSEGSGVTFLLGTKDAEAAVAKAVDAGAVKVEVTEAEVELGFKGKVTDPFGVTWIFAEKKTVITDENKEV”, the protein production was “not failed”. For “MAQEVSPESYKDLVLFLATAGIVAPIFKRLKINPILGYLLAGVILGPFGLGRFIPYAPWLDYFTVDNPDEIAQLAEFGVVFLLFMIGLELSWERLRLMRRWVFGLGAVQVIGCSLALGAGGMLLGLEPVVALTIGAALTLSSTAIAVPVLAERRRLHSEAGRATFSVLLFQDLAVAPILITLAILGRGNGSFQLQDLLALAPAALGLAVIVLVGRLALRPMLKSVAKAKSEEMFMAACLLVIIGAGMVAALSGLSMALGAFVAGVLLAETEYRHEVEVKIEPFKGLLLSLFFVSLGIRLDLSLLAAQPAAILGTALGLLVLKTAVVFGSGLLMGLNRRAAIEAALILAAGGEFAFVLLDNAMSAQVVPPAIGQAVLVSATLTMFLIPGLAALGGYLGRKNAPLPVSEAPPSTANEPDRLGPEPAGQVLVIGYGRVGRLVGDMLGRHDLPWIAVEREARLVEQGRRDGARIYYGDASRLELLERCGLATARAVVVTMDAFEVAEAVVVAARGARPDVPIVVRARDARHAARLYELGATDAVPETIEASLQLSEAVLVDIGVPMGLVIASIHERRDEYRKKLNRPDALGGRRRRLRDATLR”, the protein production was “failed”. In the case of “MAQIPFDLKHADFARLAEVGLRLPGLREVKTLTQTSWIEAPTTIIGTVVSGAELQVGAFCSLSGGTLNNVHIGRYSSIAAGTIIGVHEHPTSWLTTSRTSYWPQVYGWDELIAPDRAAEIRAGKRPFTRSCPITEIGHDVWIGQGCFIKSGVRIGHGSVIGARATVTKDVPPYSIVLGTPGRVVRTRVPEPLIERLLAVEWWRYSIYDLFAAPFDDVARALDVIEDRIAEGAIKPYEAPLVTPADLAEPLGLAARLAARFPRPLARAS”, the protein production is reported as “failed”. For “MAQIVTSTKSCTVNPLRMSQPLGAALAFMGLRNCMPLLHGSQGCTSFGLVLFVRHFRESIPLQTTAMSEVATVLGGFENVEQAIVNIVGRTKPDVIGICTTGVTEIKGDDLDGYIKMVRANHPELANVALVPVSTPDFKGAFEDGFAATVTRIVETLVETPAEGAAPDADRINVLAGSHLTPGDIDELRDIIEAFGLVPTFLPDISGSLDGHVPDDFTPTTHGGVSVAEVVAMGGAGHTLAFGEHMRKAAAALEAKAGVPFTLLSRVTGLAAADELMATLAKISGRPVPPKYRRQRSQLVDAMLDGHFYFGGKSVAIGAEPDMLLNIGGWLADMGCTVSAAVTTTTSPSLAQVPSDEVLIGDLEDLERRAEDCDLLVTHSHGRQAAERLSVPLFRMGLPMFDRLGAVHQVAVGYRGTRDLIFAIGNLFIANIKEPDVNSWRSASACPDQTDAPAKAH”, the protein production was “failed”. For “MAQNNENALPDITKSITLEAPIQKVWETVSTSEGIAKWFMPNDFQLKEGQEFHLQSPFGPSPCKVLAVQAPTELSFEWDTEGWVVTFQLEDLGEKTGFTLIHSGWKEPNEVIGKANEKSSVVRGKMDGGWTGIVNERLRKAVEELEHHHHHH”, the protein production was “not failed”. For “MAQTEKLTDYVNPFVGTDGYGNVYPGAQIPFGGIQISPDTDSRFYDAASGYKYNHLTLMGFSLTHLSGTGIPDLGDFLFIPGTGEMKLEPGTHEDPDQGYRSRYSHDKEWASPNYYAVELADYGVKAEMTSGVRSGMFRFTYPESDNAFIMIDMNHTLWQSCEWSNLRMINDSTITGYKLVKGWGPERHVYFTLEHHHHHH”, the protein production was “failed”. In the case of “MARCAVFLEELWFALFAWVPTVLGTAVRLVAWRPLFRLLGGVCGKVRFGQSLTLQGAGHMRLADGVRLGKGCHLYARTGELVMGENAALNINVVVDADGGTVRIGAHATVGPGTVIRAANHRFDRLDTPIMFQGHEYGEVVIDDDVWIAANCTVVPGVHIGRGAVVGAGAVVTKDVEPYTVVAGVPARFIRRRGPAE”, the protein production is reported as “failed”. For “MARFALVLHAHLPYVRAHGMWPFGEETLYEAMAETYLPLIRVLERLRAEGVEAPFTLGITPILAEQLADARIKEGFWAYAKDRLERAQGDYQRYRGTALEASARHQVAFWELTLDHFQRLSGDLVAAFRKAEEGGQVELITSNATHGYSPLLGYDEALWAQIKTGVSTYRRHFAKDPTGFWLPEMAYRPKGPWKPPVEGPPEGVRPGVDELLMRAGIRYTFVDAHLVQGGEPLSPYGEAALGPVESQEATYHVHELESGLRVLARNPETTLQVWSADYGYPGEGLYREFHRKDPLSGLHHWRVTHRKADLAEKAPYDPEAAFAKTEEHARHFVGLLERLAGRHPEGVILSPYDAELFGHWWYEGVAWLEAVLRLLAQNPKVRPVTAREAVQGPAVRTALPEGSWGRGGDHRVWLNEKTLDYWEKVYRAEGAMREAARRGVLPEGVLRQAMRELLLLEASDWPFLMETGQAEAYARERYEEHARAFFHLLKGASPEELRALEERDNPFPEADPRLYLFREA”, the protein production was “not failed”. For “MARFRDELLLASLIALAALILLRGLGNDSLGFPDADRILMDSVFLRDLLVDLPLADPIGYTKDYFVQYPALSIGYRPPFFPFVAALLQLLVGPEMWATRLALFGFVLVGVASSYFWIRRHYGPWPAWGATALWLTTPYLAQWGWYTMAELTVLSMALLAANLFDKYLAEGKPALLYWSVLAVALAAWTKQTALFLLPWFAAMALAEGRFLAILRRREAWIAAFGLGVLLAPLVAMTLMLGDLNLEQSVGGTNRWTLANWTVRLKTILHHLTPPLLALSVVGAIWAGLKRDRHGLPFALLIVVVYGVFSYISGKNDRYPIFWVPAFALFAVLPFHFLSQRLPAKATVPALALGVGVLAAYQGSLAFTKTPSYATGYKEAAAYVLDSSETPIVFVDAYNNGYFTYFMRALDQGRSMVVLRGDKLLSSSAINMATKVEVHAEGRQEIEEIFRSLGVSLIVVEERNYTGLDVHDELRRFLKTDSFELVQAIPIHSNRTVSVLADFPPLGGQDLLVYRYKDAKTLTSGVVSLRLPVVGQTLSVDMETMMERRRAHP”, the protein production was “failed”. In the case of “MARGEGEFYLAGRRLTGFLSAMTYAATTYSSFMIVGLVGLAYFTGIGSLVFELAYLVATVILLSLFSRRVWRMSRERGWVSPGEMLADLLGSPWVALTASLVFLVSLVPYASAQLKGIAETIVAIAGYSPGDNTAYMVAVGVALLILLAWSLLAGVRGVVLTDAFQGLWMLTAGSLLFLWLASRVFSKSGASEVLSAMESAGLFDMWSATLLIGFVTPWVFFAVTNPQVVQRLYMPKDEESLRRMILYFFLFGLYYTVLVVAIGFLARAGVELGILSIEPQGRDQVTPQLLSLAHPLLAALVFTSIVAASVSTADSIILALASSASRDIGLLVLRLDEKGRLRLGYAAAALFTVLMAVFAATRIGYIVQLSVLSSVMLLGLAPVTIAAWVGLRVHPALAVASIATGPVLVAANVLYSLAVGGEVSLSPAKQVLGVPISVWVLAISLALTAAGIALVRGRR”, the protein production is reported as “failed”. For “MARGIWGVDSAQVVTDQLFQCVRTELGYPKFWGRYLSEVPNVSEGLTRDEIVRIRNYGVKVLPIYNAFREAVGYANGQVAARNAVFHARRLGIPKNKLLFANIEDFFAVDAAWIAAWVETLYPTGYRPGLYADPTKGDFAAAYCEAVSRNNQVAVQAVIWSAAPRPGTTKEQKAPRYQPAAPPCSANVWVWQYGRDAEVCPVDTNLADRRLLDFLY”, the protein production was “not failed”. With “MARHLITSALPYINGIKHLGNMVGSMLPADVYSRYLRQRGHDVLYICATDEHGTPAELAAKERGLPVDEFCAQAHDAQKAVYDGFELAFDYFGRSSSEQNREITQHFARRLNENGFIEERAIRQVYSPADGRFLPDRYVEGTCPHCGYDKARGDQCENCTRVLDPTDLINPRSAISGSTDLEVRETKHLFLLQSKLQHEVEEWVARHEEEWPQLASSIARKWLNEGLHDRAITRDLDWGVPVPADTWPELAAEGKVFYVWFDAPIEYIGATKEWSDLDPENRDWKSWWYDADSGENPVRYTEFMAKDNVPFHTVMFPATELGVREPWKKVDYVKAFNWLTYYGGKFSTSQKRGVFTDHALEILPADYWRYFLIANAPESDDSSFTWEHFTATVNKDLADTLGNFVNRVLSFSKKRFGEEVPAGAPAGESETKLGEEIAALLAEYESHMETLQFRKAAAALRALWSAGNSYLEEKAPWLEIKTNPEGAALTLRTAMNLIHLYSVVSEPFIPASSKAMRSAFALSEDTATWVTQDEAKSLDSVPAGTPFTVPPVLFAKITDEDLESYKERFGGAPE” the protein production was “failed”. With “MARIKLDFPDTAFTFETRLPVRITDINGANHLGNDALISMLSEARAQFLVEHGIEEAGHDGVGIIVTDLATMYQGESFYPDMLRFEVGLMDFNKYGGDFVFRVTKADSGQPVALAKYGFVFFNYQSREVTPMPESFRARFA” the protein production was “failed”. With “MARKKITLVGAGNIGGTLAHLALIKQLGDVVLFDIAQGMPNGKALDLLQTCPIEGVDFKVRGTNDYKDLENSDVVIVTAGVPRKPGMSRDDLLGINIKVMQTVGEGIKHNCPNAFVICITNPLDIMVNMLQKFSGVPDNKIVGMAGVLDSARFRTFLADELNVSVQQVQAYVMGGHGDTMVPLTKMSNVAGVSLEQLVKEGKLKQERLDAIVSRTRSGGGEIVALLKTGSAYYAPAAAGIQMAESFLKDKKMILPCAAKVKAGMYGLDEDLFVGVPTEISANGVRPIEVEISDKEREQLQVSINAIKDLNKAAAEILAK” the protein production was “not failed”. In the case of “MARKNQKAPWEPEEEIIWVSKSEMKRDMEELQKLGEELVGLKPAVLEKFPLSEDLREAIADAQRFKNEARRRQLQRIGKLMRYEDPEPIQAALDKVRNKHSQATAALHKLEMLRDRVVEEGDKAIDDVMELYPEADRQRLRQLARQAAKEKKAGKPAKSYREIFQILKALNEEE”, the protein production is reported as “not failed”.
